Measurements reported in article PMC9499477, “The Inflammasome Activity of NLRP3 Is Independent of NEK7 in HEK293 Cells Co-Expressing ASC” (International Journal of Molecular Sciences, 2022).

Target: the molecule itself
Test: SEC + other: dynamic light scattering; analytical SEC: 100 µL of 1 mg/mL FLAG-tagged NLRP3ΔPYD on Superose 6 Increase 10/300, 20 mM HEPES pH 7.5, 200 mM NaCl, 1 mM MgCl2, 2 mM DTT, size by calibration standards; DLS at 10 °C in the same buffer; self-association

B1: NLRP3ΔPYD carrying the double mutation F788E/F813E (NLRP3ΔPYD-F788E/F813E), FLAG-tagged (domain or fragment, human, UniProt Q96P20 126-1036, looked up)
chain: RISICKMKKDYRKKYRKYVRSRFQCIEDRNARLGESVSLNKRYTRLRLIKEHRSQQEREQELLAIGKTKTCESPVSPIKMELLFDPDDEHSEPVHTVVFQGAAGIGKTILARKMMLDWASGTLYQDRFDYLFYIHCREVSLVTQRSLGDLIMSCCPDPNPPIHKIVRKPSRILFLMDGFDELQGAFDEHIGPLCTDWQKAERGDILLSSLIRKKLLPEASLLITTRPVALEKLQHLLDHPRHVEILGFSEAKRKEYFFKYFSDEAQARAAFSLIQENEVLFTMCFIPLVCWIVCTGLKQQMESGKSLAQTSKTTTAVYVFFLSSLLQPRGGSQEHGLCAHLWGLCSLAADGIWNQKILFEESDLRNHGLQKADVSAFLRMNLFQKEVDCEKFYSFIHMTFQEFFAAMYYLLEEEKEGRTNVPGSRLKLPSRDVTVLLENYGKFEKGYLIFVVRFLFGLVNQERTSYLEKKLSCKISQQIRLELLKWIEVKAKAKKLQIQPSQLELFYCLYEMQEEDFVQRAMDYFPKIEINLSTRMDHMVSSFCIENCHRVESLSLGFLHNMPKEEEEEEKEGRHLDMVQCVLPSSSHAACSHGLVNSHLTSSFCRGLFSVLSTSQSLTELDLSDNSLGDPGMRVLCETLQHPGCNIRRLWLGRCGLSHECCEDISLVLSSNQKLVELDLSDNALGDEGIRLLCVGLKHLLCNLKKLWLVSCCLTSACCQDLASVLSTSHSLTRLYVGENALGDSGVAILCEKAKNPQCNLQKLGLVNSGLTSVCCSALSSVLSTNQNLTHLYLRGNTLGDKGIKLLCEGLLHPDCKLQVLELDNCNLTSHCCWDLSTLLTSSQSLRKLSLGNNDLGDLGVMMFCEVLKQQSCLLQNLGLSEMYFNYETKSALETLQEEKPELTVVFEPSW
notes: NLRP3, human, N-terminally truncated, amino acids 126-1036 (lacks the pyrin domain), with F788E and F813E; Made by megaprimer mutagenesis of the NLRP3ΔPYD construct; also called the mutant
stoichiometry N: ~3
